The values that follow come from US10351618B2, “UTI fusion proteins” (Takeda Pharmaceutical Company Limited, priority 2014, dated 2019).

One data set has as its system C5a. Description: LPS induced C5a in C3H mice (complement inhibition in vivo). More on the design: species or system C3h/HeJ mice. Conditions: 4 hours post LPS dose, p<0.05, FIG. 10. On the procedure: UTI-Fc1 (SEQ ID NO:1) affects on the complement system were measured in vivo. Female, C3h/HeJ mice were purchased from Jackson Laboratories. Animals are dosed according to the experimental design Table 10. Animals were injected i.p. (100 ul/mouse) 15 minutes post dose with LPS at time zero. Animals were euthanized at 2 and 4 hours post LPS injection by CO2 overdose and blood was collected by cardiac puncture. Blood was transferred to serum separator microtubes and allowed to clot at room temperature for 30 minutes. Subsequently, microtubes were centrifuged at 12,000 rpm for 5 minutes and serum was removed and aliquoted to a 96 well plate. Rosmarinic acid was used as a positive control and used as 3 mg/ml in saline. The 96 well plate was frozen at −20° C. Serum samples were analyzed for C5a content by duoset. Statistical significance was determined using Prism graphing software and effects were considering statistically significant if p<0.05.

Another data set deals with T1, papain (Carica papaya, UniProt P00784).
T1 sequence (P00784 134-345): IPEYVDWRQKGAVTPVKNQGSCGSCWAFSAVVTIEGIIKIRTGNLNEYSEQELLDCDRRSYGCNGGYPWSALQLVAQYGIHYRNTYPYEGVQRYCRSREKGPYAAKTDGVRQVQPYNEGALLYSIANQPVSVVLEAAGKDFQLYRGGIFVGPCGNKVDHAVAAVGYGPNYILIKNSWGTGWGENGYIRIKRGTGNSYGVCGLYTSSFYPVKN
Description: Protease inhibition at Reaction Biology Corporation: papain. To be noted: FIG. 7. It counts as biochemical. As to the method:
(§1) Measurement of the inhibition of other proteases by UTI-Fc1 was also measured at Reaction Biology Corporation (Malvern, Pa.). […] FIG. 7 lists the inhibitory constants of UTI-Fc1 for a variety of proteases.

The target in the next data set is plasmin (Homo sapiens, UniProt P00747). Description: Protease inhibition at Reaction Biology Corporation: plasmin. Conditions: FIG. 7. Format: biochemical. As to the method:
as §1

Data set [1] in a line: Real-time stability (SEC, A280, PAGE) in TBS pH7.4. It counts as physicochemical. As to the method:
Real-time stability measurements were performed by incubating SEQ ID NO:1 (UTI-Fc1) or CN 103044554 A, SEQ IDS 2 or 6 at 2-8° C., and 40° C. for 0, 2 and 4 weeks in TBS, pH7.4 buffer. The formation of higher and lower molecular weight species was determined by size exclusion chromatography (SEC) and visualized with polyacrilamide gel electrophoresis (PAGE). The concentration of each UTI-Fc was also monitored by determination of the absorbance of the solution at 280 nm (A280), using extinction coefficients determine by the protein composition. The UTI-Fc molecules produce two, partially overlapping peaks, when analyzed by SEC. The percentage peak area in each UTI-Fc sample measured by SEC is reported in Table 9 at time=0 weeks, 2 weeks, and 4 weeks. Also shown is the percentage change in concentration measured by A280 (% A (mg/ml)) at time=2 weeks and 4 weeks. The initial TO concentration of each sample was UTI-Fc1=33.5 mg/mL, CN 103044554 A SEQ ID 2=8.5 mg/mL, and CN 103044554 A SEQ ID 6=5.6 mg/mL. A variability of 3% is typical for SEC and 15% for individual UV measurements.

A short description of data set [2]: Thermal stability by differential scanning calorimetry. Format: physicochemical. As to the method: Assays were performed to measure the thermal and real-time stability. […] Thermal stability was measured by differential scanning calorimetry on a Microcal VP-DSC calorimeter. Samples were prepared at 1 mg/ml and buffered in 0.25 mM Tris pH7.4, 0.13M NaCl and 0.0027M KCl. Samples were heated from 25° C. to 110° C. at a rate of 200° C. per hour. UTI-Fc1 was compared to Application Publication Number CN 103044554 A, SEQ ID's 2 and 6, which comprise an IgG2 or IgG1 Fc domain respectively.

The next data set addresses cathepsin C (Homo sapiens, UniProt P53634). Description: Protease inhibition at Reaction Biology Corporation: cathepsin C. It counts as biochemical. To be noted: FIG. 7. On the procedure: as §1
Another data set has as its target T2, caspase-1 (Homo sapiens, UniProt P29466).
T2 sequence (P29466 120-404): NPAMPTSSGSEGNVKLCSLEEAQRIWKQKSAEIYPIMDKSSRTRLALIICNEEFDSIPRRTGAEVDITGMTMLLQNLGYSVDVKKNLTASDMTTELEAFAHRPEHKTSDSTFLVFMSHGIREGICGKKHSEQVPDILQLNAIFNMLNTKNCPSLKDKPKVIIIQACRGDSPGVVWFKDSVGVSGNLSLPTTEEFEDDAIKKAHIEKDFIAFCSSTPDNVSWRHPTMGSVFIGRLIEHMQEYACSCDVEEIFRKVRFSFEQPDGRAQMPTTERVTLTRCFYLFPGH
Description: Protease inhibition at Reaction Biology Corporation: caspase-1. Format: biochemical. To be noted: FIG. 7. As to the method: as §1

A further data set deals with chymotrypsin. Description: Protease inhibition at Reaction Biology Corporation: chymotrypsin. Format: biochemical. To be noted: FIG. 6, FIG. 7. On the procedure:
as §1

For data set [3] the following is noted: rodents and humans (Fries et al 2000); cited from earlier work.
A further data set concerns the target T3, Human pancreatic trypsin (Homo sapiens, UniProt P07477).
T3 construct: purchased Athens Research & Technology, Inc
Description: In vitro enzymatic assay for trypsin inhibition. It counts as biochemical. Conditions: human pancreatic trypsin 1.5 nM, 15 min pre-incubation, FIG. 5. As to the method: Solutions of UTI-Fc1 at various concentrations 200 nM final concentration) are prepared in 50 mM HEPES, 150 mM NaCl, 20 mM CaC12 and 0.01% Brij L23, pH 7.4. Activity assays were performed in Greiner 384-well small volume plates. All steps were conducted at ambient temperature.
Human pancreatic trypsin (1.5 nM final concentration) (Athens Research & Technology, Inc) was added to the dilutions then pre-incubated with the test UTI-Fc for 15 minutes. Next, the reaction was initiated with 100 μM (final) of substrate N[…]-Benzoyl-L-arginine-7-amido-4-methylcoumarin hydrochloride SIGMA B7260-25 MG. The reaction mixture total volume was 20 µl. Trypsin activity was determined via fluorescence. For example, the fluorescence intensity was determined in kinetic mode over a window of 30 to 60 minutes on a BMG PHERAstar FS or PHERAstar plus using an excitation wavelength of 370 nm and an emission wavelength of 470 nm. Trypsin activity was linearly proportional to the change in fluorescence observed (final−initial). […]
Where: Fi was the observed fluorescence at a given concentration of test UTI-Fc.
Fp was the observed fluorescence of a positive control i.e., the average value of 2 to 6 assays in the absence of Trypsin.
Fn was the observed fluorescence of a negative control i.e., the average value of 2 to 6 assays of Trypsin in the presence of vehicle alone. […]

Another data set concerns the target plasma kallikrien (Homo sapiens, UniProt P03952). To be noted: full-length UTI (Morishita et al. 1994); cited from earlier work.
The target of a further data set is Factor Xa (Homo sapiens, UniProt P00742). Conditions: full-length UTI (Morishita et al. 1994); cited from earlier work.
For data set [4], the system named is trypsin-induced IL-6 production in BEAS2B cells. Description: Inhibition of trypsin-induced IL-6 release in BEAS2B cells. It counts as cell-based, human. Conditions: 100 nM trypsin, 8 hours, FIG. 8. As to the method:
UTI-Fc1 inhibition of cytokine release was measure in a cell-based assay. BEAS2B cells were seeded at the density of 20,000 cells/well in 96 well plate and cultured using complete BEGM Bullet Kit (Lonza) in CO2 incubator. After 24 hours, the culture media were replaced with plain DMEM for starvation and cells were cultured overnight. Then cells were incubated with fresh plain DMEM containing 100 nM trypsin with various concentrations of human urine UTI or recombinant UTI-Fc1 proteins. After 8 hours, culture supernatants were collected and IL-6 protein levels were assessed using human IL-6 DuoSet (R&D Systems).

[5] abbreviates: 1 mg/ml, Tris pH7.4, 25° C. to 110° C. at 200° C. per hour.

Chain of cathepsin C (P53634 25-463, species assumed): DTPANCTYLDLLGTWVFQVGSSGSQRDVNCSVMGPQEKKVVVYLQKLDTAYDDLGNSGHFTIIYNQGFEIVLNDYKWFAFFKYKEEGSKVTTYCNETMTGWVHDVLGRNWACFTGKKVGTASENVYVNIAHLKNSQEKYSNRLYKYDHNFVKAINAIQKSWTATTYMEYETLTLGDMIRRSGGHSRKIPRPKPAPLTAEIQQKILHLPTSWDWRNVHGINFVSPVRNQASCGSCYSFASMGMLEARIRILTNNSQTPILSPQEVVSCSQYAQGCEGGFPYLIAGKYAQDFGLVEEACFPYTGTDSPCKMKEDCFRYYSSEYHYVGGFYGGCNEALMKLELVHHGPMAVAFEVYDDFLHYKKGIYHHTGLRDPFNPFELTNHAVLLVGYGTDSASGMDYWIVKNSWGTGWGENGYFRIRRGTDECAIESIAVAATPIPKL
Chain of plasma kallikrien (P03952 20-638): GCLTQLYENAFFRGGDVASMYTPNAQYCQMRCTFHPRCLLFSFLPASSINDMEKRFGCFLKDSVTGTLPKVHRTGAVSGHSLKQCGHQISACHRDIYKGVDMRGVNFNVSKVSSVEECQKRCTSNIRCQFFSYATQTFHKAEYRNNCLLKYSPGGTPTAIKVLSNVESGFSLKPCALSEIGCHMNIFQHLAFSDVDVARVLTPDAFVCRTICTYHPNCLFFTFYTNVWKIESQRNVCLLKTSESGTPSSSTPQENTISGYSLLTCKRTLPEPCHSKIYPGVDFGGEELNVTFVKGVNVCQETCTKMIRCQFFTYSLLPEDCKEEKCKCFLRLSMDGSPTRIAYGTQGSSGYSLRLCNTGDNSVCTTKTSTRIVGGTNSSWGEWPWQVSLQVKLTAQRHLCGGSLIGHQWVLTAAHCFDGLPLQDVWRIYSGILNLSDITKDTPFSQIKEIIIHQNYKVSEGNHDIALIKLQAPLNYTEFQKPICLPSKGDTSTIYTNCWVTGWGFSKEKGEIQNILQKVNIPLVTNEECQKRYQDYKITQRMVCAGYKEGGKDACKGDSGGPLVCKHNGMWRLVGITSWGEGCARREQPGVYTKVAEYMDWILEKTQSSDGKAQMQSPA
Chain of Factor Xa (P00742 235-488 limits assumed): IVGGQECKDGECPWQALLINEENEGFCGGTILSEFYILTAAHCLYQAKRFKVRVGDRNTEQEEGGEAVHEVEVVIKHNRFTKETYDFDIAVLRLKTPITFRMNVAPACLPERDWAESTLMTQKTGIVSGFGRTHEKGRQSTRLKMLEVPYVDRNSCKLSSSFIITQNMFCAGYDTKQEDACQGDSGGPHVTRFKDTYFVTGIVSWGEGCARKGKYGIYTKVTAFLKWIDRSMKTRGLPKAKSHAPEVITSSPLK
Chain of Factor Xa (P00742 41-179 partner limits assumed): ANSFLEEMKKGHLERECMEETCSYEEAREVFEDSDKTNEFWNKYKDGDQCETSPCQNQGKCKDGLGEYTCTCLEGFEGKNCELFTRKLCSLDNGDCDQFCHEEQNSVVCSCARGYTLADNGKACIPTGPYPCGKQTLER
Chain of plasmin (P00747 581-810 limits assumed, species assumed): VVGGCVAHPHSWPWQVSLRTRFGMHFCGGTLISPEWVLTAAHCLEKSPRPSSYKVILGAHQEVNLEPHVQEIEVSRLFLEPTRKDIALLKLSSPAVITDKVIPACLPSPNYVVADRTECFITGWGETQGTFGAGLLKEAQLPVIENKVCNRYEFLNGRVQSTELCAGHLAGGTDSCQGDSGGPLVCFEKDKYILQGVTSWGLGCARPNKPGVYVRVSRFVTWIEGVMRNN
Chain of plasmin (P00747 97-580 partner limits assumed, species assumed): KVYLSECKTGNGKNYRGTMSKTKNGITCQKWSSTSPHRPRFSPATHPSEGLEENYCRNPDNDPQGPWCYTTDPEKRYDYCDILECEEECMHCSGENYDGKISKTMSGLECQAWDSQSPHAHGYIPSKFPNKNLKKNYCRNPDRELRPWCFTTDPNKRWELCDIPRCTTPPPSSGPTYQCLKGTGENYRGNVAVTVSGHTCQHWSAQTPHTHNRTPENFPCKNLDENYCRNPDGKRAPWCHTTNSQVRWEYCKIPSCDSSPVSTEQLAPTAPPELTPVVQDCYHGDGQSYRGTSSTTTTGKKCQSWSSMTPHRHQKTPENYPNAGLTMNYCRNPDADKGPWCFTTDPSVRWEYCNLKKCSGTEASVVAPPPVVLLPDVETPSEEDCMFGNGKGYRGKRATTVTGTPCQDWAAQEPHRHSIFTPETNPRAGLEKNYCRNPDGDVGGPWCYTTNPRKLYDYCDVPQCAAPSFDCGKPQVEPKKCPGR

As for “UTI-Fc1: UTI-Fc fusion protein, human UTI domain linked to wild type IgG1 Fc, SEQ ID NO: 1”, the “serum C5a” value in the data set on C5a (20 mg/kg iv), with C5a (50 mg/kg iv) and in the data set on C5a (100 mg/kg iv) was “significantly reduced” in each case. Further, the inhibition of papain result in the data set with papain was “weak inhibition”. Besides, the inhibition of plasmin result with plasmin is on record as “moderately”. Moreover, the “SEC percentage peak area Peak1” value was 35.7% in [1] (0 weeks); 36.2% in [1] (2 weeks at 2-8° C.); 37.1% in data set [1] (2 weeks at 40° C.); 36.1% in data set [1] (4 weeks at 2-8° C.); 36.8% in data set [1] (4 weeks at 40° C.). Besides, the “SEC percentage peak area Peak2” value in data set [1] (0 weeks) came out at 64.3%; in [1] (2 weeks at 2-8° C.), 63.8%; in data set [1] (2 weeks at 40° C.), 62.9%; in data set [1] (4 weeks at 2-8° C.), 63.9%; in data set [1] (4 weeks at 40° C.), 63.2%. Moreover, the “% Δ (mg/ml), percentage change in concentration by A280” value in [1] (2 weeks at 2-8° C.) worked out at 9.2%; in [1] (2 weeks at 40° C.), 0.2%; in data set [1] (4 weeks at 2-8° C.) it was 1.2%; in [1] (4 weeks at 40° C.) it was 11.9%. Further, in data set [2], the “thermal stability compared to the UTI fusion proteins of CN 103044554A” value is on record as “greater thermal stability”. Besides, the “DSC Tm1” value in data set [2] (setting [5]) is 70.86 °C. The “DSC Tm2” value in [2] (setting [5]) turned out to be 85.79 °C. Moreover, the “inhibition of cathepsin C” value with cathepsin C was “weak inhibition”. In the data set with caspase-1, the “inhibition of caspase-1” value is “weak inhibition”. Besides, in the data set on chymotrypsin, the inhibition of chymotrypsin entry was “moderately”.

B1: UTI: Urinary Trypsin Inhibitor, protease inhibitor of about 40 kD present in human urine and blood (protein)
chain: AVLPQEEEGSGGGQLVTEVTKKEDSCQLGYSAGPCMGMTSRYFYNGTSMACETFQYGGCMGNGNNFVTEKECLQTCRTVAACNLPIVRGPCRAFIQLWAFDAVKGKCVLFPYGGCQGNGNKFYSEKECREYCGVPGDGDEELLRFSN
Take B1: in data set [3], the half-life was 4 to 30 min. Further, the IC50 in the data set with Human pancreatic trypsin was ~3 nM. For the same molecule, the “inhibition of plasma kallikrien” value with plasma kallikrien is listed as “does not show inhibition”. Also, the “inhibition of Factor Xa” value with Factor Xa is “does not show inhibition”. In addition, the “IC50 of trypsin-induced IL-6 production” value in [4] was 0.40 µg/mL.
